# Assay results from publication doi:10.1101/2022.11.10.516045.
# Columns and labels:
# [1] = target: human PCPE-1 (procollagen C-proteinase enhancer protein-1), no tag (human) (UniProt Q15113); test: SPR
# [2] = target: homotrimeric mini-procollagen II (human); test: SDS-PAGE in non-reducing against reducing
# [3] = target: mini-procollagen III (human); test: SDS-PAGE in non-reducing against reducing
# [4] = target: α2 chain of mini-procollagen I (human); test: co-purification by the tag of one chain, SDS-PAGE of the BMP-1 cleavage products
# Sequence of UniProt Q15113 (Q15113 26-449): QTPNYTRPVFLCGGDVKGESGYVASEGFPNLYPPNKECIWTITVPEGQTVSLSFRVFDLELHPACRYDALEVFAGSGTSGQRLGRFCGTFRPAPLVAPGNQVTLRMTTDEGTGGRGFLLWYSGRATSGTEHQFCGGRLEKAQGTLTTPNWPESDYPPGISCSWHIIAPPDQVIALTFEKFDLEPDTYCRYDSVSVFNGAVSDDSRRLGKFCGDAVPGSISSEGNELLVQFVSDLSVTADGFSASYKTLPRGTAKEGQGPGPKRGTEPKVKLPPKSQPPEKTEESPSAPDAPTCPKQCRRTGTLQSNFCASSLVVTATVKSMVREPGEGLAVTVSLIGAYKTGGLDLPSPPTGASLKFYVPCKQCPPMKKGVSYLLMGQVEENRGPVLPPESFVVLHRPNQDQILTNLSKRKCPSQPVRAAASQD
Substance,KD1 (heterogeneous ligand model) [1] [nM],KD2 (heterogeneous ligand model) [1] [nM],stoichiometry N [2],stoichiometry N [3],stoichiometry N (α1 chains for one α2 chain) [4]
heterotrimeric mini-procollagen I (complex),< 15,< 15,,,
homotrimeric mini-procollagen II (domain or fragment),< 15,< 15,3,,
mini-procollagen III (domain or fragment),< 15,< 15,,3,
α1 chain of mini-procollagen I (domain or fragment),,,,,2
